Results taken from patent publication US7354722 (SIGNAL PHARMACEUTICALS, dated 2008).
Each block holds one binder with its values, some of them ahead of it.

Target: T1, Xenopus Smurf1 (Xenopus, UniProt Q9PUN2 1-731)
T1 construct: Used as a yeast two-hybrid fusion and as in vitro translated 35S-Met-labelled protein; also called Xsmurf; 35S-labelled Smurf1
Assay: in vitro co-immunoprecipitation: 35S-Smurf1 on FLAG-Smad bound to anti-FLAG beads
Protocol: (A) Smurf1 interacts with Smad1. Yeast two-hybrid assays were done on yeast co-transformed with combinations of Xenopus Smurf1 (Xsmurf) together with Smad1, Smad2, lamin or vector alone. […] Co-immunoprecipitation on in vitro translated proteins was done by incubating 35S-labelled Smurf1 together with in vitro translated, 35S-Met trace-labelled Flag-tagged Smad1 (35S-F/Smad1), Smad2 (35S-F/Smad2) or Smad4 (35S-F/Smad4) immobilized on anti-Flag affinity gel matrices. After washing, bound proteins were eluted and analyzed by SDS-PAGE (right panel).

T1 sequence (Q9PUN2 whole entry, the tested form may be a part): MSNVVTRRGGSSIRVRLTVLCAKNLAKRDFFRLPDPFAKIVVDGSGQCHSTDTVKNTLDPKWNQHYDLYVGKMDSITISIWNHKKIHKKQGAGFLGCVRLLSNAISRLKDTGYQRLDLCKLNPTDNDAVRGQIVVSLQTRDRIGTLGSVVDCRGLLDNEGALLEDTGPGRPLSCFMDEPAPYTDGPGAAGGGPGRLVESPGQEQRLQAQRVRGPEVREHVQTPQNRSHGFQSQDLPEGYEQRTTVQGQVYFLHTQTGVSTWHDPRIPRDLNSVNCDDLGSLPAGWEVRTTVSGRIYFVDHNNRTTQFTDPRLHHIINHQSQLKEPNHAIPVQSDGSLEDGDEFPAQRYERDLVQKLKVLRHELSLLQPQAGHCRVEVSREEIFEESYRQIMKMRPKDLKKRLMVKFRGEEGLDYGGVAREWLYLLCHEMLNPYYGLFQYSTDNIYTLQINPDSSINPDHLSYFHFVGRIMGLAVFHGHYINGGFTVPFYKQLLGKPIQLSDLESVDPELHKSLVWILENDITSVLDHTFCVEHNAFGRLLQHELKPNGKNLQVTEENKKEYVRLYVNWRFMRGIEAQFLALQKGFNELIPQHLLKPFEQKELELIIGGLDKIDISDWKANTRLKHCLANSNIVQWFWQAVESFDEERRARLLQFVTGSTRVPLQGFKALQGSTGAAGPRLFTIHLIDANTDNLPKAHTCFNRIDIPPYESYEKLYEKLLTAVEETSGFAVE

binding result: no binding
B1: mouse Smad4, FLAG-tagged at the C-terminus, in vitro translated (other, UniProt P97471 1-551, looked up)
chain: MDNMSITNTPTSNDACLSIVHSLMCHRQGGESETFAKRAIESLVKKLKEKKDELDSLITAITTNGAHPSKCVTIQRTLDGRLQVAGRKGFPHVIYARLWRWPDLHKNELKHVKYCQYAFDLKCDSVCVNPYHYERVVSPGIDLSGLTLQSNAPSMLVKDEYVHDFEGQPSLPTEGHSIQTIQHPPSNRASTETYSAPALLAPAESNATSTTNFPNIPVASTSQPASILAGSHSEGLLQIASGPQPGQQQNGFTAQPATYHHNSTTTWTGSRTAPYTPNLPHHQNGHLQHHPPMPPHPGHYWPVHNELAFQPPISNHPAPEYWCSIAYFEMDVQVGETFKVPSSCPVVTVDGYVDPSGGDRFCLGQLSNVHRTEAIERARLHIGKGVQLECKGEGDVWVRCLSDHAVFVQSYYLDREAGRAPGDAVHKIYPSAYIKVFDLRQCHRQMQQQAATAQAAAAAQAAAVAGNIPGPGSVGGIAPAISLSAAAGIGVDDLRRLCILRMSFVKGWGPDYPRQSIKETPCWIEIHLHRALQLLDEVLHTMPIADPQPLD
notes: also called 35S-F/Smad4; not shown: C-terminal FLAG tag

binding result: no binding
B2: human Smad2, FLAG-tagged at the C-terminus, in vitro translated (other, UniProt Q15796 1-467, looked up)
chain: MSSILPFTPPVVKRLLGWKKSAGGSGGAGGGEQNGQEEKWCEKAVKSLVKKLKKTGRLDELEKAITTQNCNTKCVTIPSTCSEIWGLSTPNTIDQWDTTGLYSFSEQTRSLDGRLQVSHRKGLPHVIYCRLWRWPDLHSHHELKAIENCEYAFNLKKDEVCVNPYHYQRVETPVLPPVLVPRHTEILTELPPLDDYTHSIPENTNFPAGIEPQSNYIPETPPPGYISEDGETSDQQLNQSMDTGSPAELSPTTLSPVNHSLDLQPVTYSEPAFWCSIAYYELNQRVGETFHASQPSLTVDGFTDPSNSERFCLGLLSNVNRNATVEMTRRHIGRGVRLYYIGGEVFAECLSDSAIFVQSPNCNQRYGWHPATVCKIPPGCNLKIFNNQEFAALLAQSVNQGFEAVYQLTRMCTIRMSFVKGWGAEYRRQTVTSTPCWIELHLNGPLQWLDKVLTQMGSPSVRCSSMS
notes: also called 35S-F/Smad2; not shown: C-terminal FLAG tag
